From the DeepSol protein solubility set

Experiment: soluble on expression in E. coli; label from the status in PepcDB or PDB records

Sequence | soluble on expression in E. coli
MGSDKIHHHHHHMALVKLQTQHFRNLLSAPVEFSPSFNLLYGANGSGKTSVLEAIGYLGLGRSFRVSRHQAVVAHGQSKLTVFGALDSGLLAQESSEKVEHRIGISRDVSLKETQLRVDGEAVRSLSFLAMHLPVSVIDPGVFDIVAGGPGKRRQFLDWLVFHVEPSFSSLWQQVQRVTSQRNQMLRNGRLDESLMRVWDSQYGALAESLSDIRETVFQRFKIAFESVLAELDAPWVEGLKMDFYPGWDRSTALTEVLVNHREQERRMGHTLYGPNRADIRLKFGGRPVAETFSRGQQKTLVILMKIAQGKVLSDLGKQVTFLLDDINAELDVRHRVMLARNLQELRCQVFITSIEHPEPDTLWHDGDTPEYRMFHVEHGQLTEE | not soluble
MGSDKIHHHHHHMALWQAKQVCPEIIFVPPRMDLYLRFSQMAREIYSEYTDKIEPYGIDEAWLDVSDSGNLKGSGMTIAREISHRIKYELGVTVSIGISWNKIYAKLGSDYKKPDAITEFNRENYKDRIWQLPASDLLYVGRQTNKKLQKLGIRTIGQLAESDEKLLESHFGKIGNVLWAFANGWDEDPVCKEGYEAPVKSIGNSTTTPRDLENDLDVWIIQIALAESVAARLRKHGFKCKTVEITVRDNGLYSFSRQIHLRQPTNITNEIVTAAFQLFKDNYKWEHPIRSLGIRAADLVLDDIPVQLDLFGNQEKKEKLEKLDRTVDEIRRRFGYFSIQRAAMYQDKVLSHLDAGTHTVHPHSYFHG | not soluble
MGSDKIHHHHHHMANALGLDFGTTNTVLAQSIDETTTHSVQFTSMAGTTDSMRTALSFMKDAQLGARALKVEAGQAAIRQFIDNPGDCRFLQSIKTFAASALFQGTLVHARRFQFEDLMEVFLKRLETYAGDGWPATASRIVAGRPVHFAGASPDPELAMRRYNEALTRLGFPEIHYVYEPVAAAFYFAQHLTTDATVLVADFGGGTTDYSLIRFERKAGVLSAVPVGYSGVGLAGDQFDARIIEHLVAPEIGKGSQFKSFDKILDIPSNYYTSFSRWNQLSVFKSSKEFADLKQLVRQSLAPDKLELFIDLVEHDEGYPLYQAVSSTKMALSAADEAEFNFSPLGAAGRKTVKRQDFESWIADDLTRIESALDDVLTRTNTEAGAVDKVFLTGGTSFVPAVRRIFTERFSQDRIESGGEMVSIAHGLALIGDRDDIALWTA | not soluble
MGSDKIHHHHHHMANFSYEVFSKVVERGTLAKAAAELNVTPSAVSHSVSQLETELGFPLLIRNRTGVALTEDGAQVLPIIQSIQNLEEQLTQVADNINGVNTGRIRIGAFSSVSTNWLPTIIRRFKKRYPHIEISVVQGTFNRIVEAVRLGTADIGFSSLPVGPGVVVEPLLKDPIYCITAKQFKPKNGRTVTQADVDKQNFILQQIDYDRDTKNALDRYHVSSNAINYSIDDQSILSMVESGLGMGILPKLAVQKLVGDVNMYPFSEPFERTLCLVINPTIKKSPSVQRMQQVIHSFLAETYGEAFLGHQG | not soluble
MGSDKIHHHHHHMAPEDWLRAETQGDIVALVHSHPGGQPYLSDVDRRLQVQSDLPWWLVCAGQVHKFRCVPHLTGRHYKHGVFDCYTLFRDAYHLAGIDMPDFHRDDDWWRHGDNLYLDNLETTGFYRVSAASAQPGDVLICCFGSSVPNHAAIYCGDGELLHHIPEQLSKRERYTDKWQRRTHSIWRHRAWRASAFTGICNDFAAASACR | not soluble
MGSDKIHHHHHHMAPLLFRQILDLEAEAIQRAAERADAEAFANATQLIANCSGKVVLSGVGKSGIIARKITATLLSIGTLSAFLHPCDALHGDLGIVTEQDVVVMLSNSGETDELLAMLPHLQRRQVPIIAIVGNMRSTLARVAAAVLDASVDREACPLNLAPTASTTVALAIGDALAAQVMDYRSVTSEQFAFNHPAGRLGKRLTLKVVDVMHQGEELPLLPPEARFVEVVTAISRGGLGAVPIVEADGRLLGLITDGDLRRLLEQTSPAKLDQITAAEFMTPQPIAVEGDLLAYDALHLMENRPSQISVLPVVDAAQRCLGLVRIHDLIRSGI | not soluble
MGSDKIHHHHHHMAQLVAIDNKNHLNLKVDAAKAELHGAGLHLVPAVMAEFTSMAVQYPLVITKNADTGQFVVAAMLGFESGENLFWRGGQWQGLYLPLQIRRQPFFVGNPEQNSEQKVAGDYVVCFDSESPAIVSNDGQALFSEDGVDTEYFQQAKYCLAQLLEGELANKKLLEQLQSMELLQVMQMEVTFANQQSTTLNGLYTIDTEKLAALSAEKIASLHKAGLLQAIYTLITSLGQIHHLIDLKNKQLGC | not soluble
MGSDKIHHHHHHMARKDKIVTPSVTQKLQSLGYNVADWDDSKTTSKLTDEIITVLKKASKSENGNEGYPDRIYCNKKKKLLILVEEKPTMQEHNIESIKSGCIAGLKWYLKQFLSEKFSSWKIIGIAVSGDLSDQYKHKFSCFLIDKQKISLAENVNNFLKENEFIALFNNIDEEKAISKVTKVSKKINKLLRSIDSQKRPIILAALMISLYRSEKYDNNFPDIYENYNSEQILNNIYPTVKNILTAEDVPEEKLKSLELELNSINQDPSLKNTNILKEILKELDENIIQLFNDTFSTTSNYDIMGKFYEEFLRFAGVSNVKKGIVLTPRHIATLFTKLIPFKKNDKILDLCCGTGAFLIAGMNKLLSLKGIDAQNVKSNQLLGFEINPTMYICAISNMLFRGDGKSKIYNMDSINDDKVNKIISESAPTIGFINPPYSGKENKEDPTPKEITFLKKC | not soluble
MGSDKIHHHHHHMARQFIYHMAGLSKTYGNKKILENIHLSFYPDAKIGILGPNGAGKSTILRIMAGIDKEYTGEAWLSEGVRCGYLPQEPFLDASKDVRDNVMEGVADKQAIVERYNELMMNYSEETADESARLQDIIDGQNLWDLESQVEMAMAALGCPPANGDVTKLSGGERRRVALCKLLLSKPDLLLLDEPTNHLDAETTAWLERYLREYSGAVLLVTHDRYFLDNVTGWILELDRGKGIPYEGNYSAYLAAKAKRLAQEGREEAARQRALSREQEWIASSPKGRQAKSKARIKAYDELVQASRERRPGEAQIIIPIGERLGQVVIEVDNLSKAYGERVLIDDLSFKLPAGGIVGVIGANGMGKSTLFKMLTGQEQPDSGQIRIGETAHMSYVDQSRDSLVGDKTVWEEISGGNDVIKLGKYEMNSRAYCGAFNFKGADQQQKVANLSGGQRNRVHLAKLLKEGGNVLLLDEPTNDLDTETLGALEDALENFAGCAVIISHDRMFLDRLATHILAFEGDGHVEWFEGNFAEYEADKVRRFGADSLNLKRVNYKPLTR | not soluble
MGSDKIHHHHHHMASDIHTLSDSLLWKRFLEGDSSAYSQIYNQTVQELFRYGLLYTSDRELVKDCIHDVFVKIYTNRAKLTPTDNIIAYLMVALKNTLFNALKKTSDSFSLDEADEKEDQSEEHFSTPETIYINKEQEKNTHMKVHAMMSSLTTRQREIVYYRYIKDMSIDEISKITDMNYQSVSNSIQRALGRVRNLFKRE | not soluble
MGSDKIHHHHHHMASIDFRNKINWHRRYRSPQGVKTEHEILRIFESDRGRIINSPAIRRLQQKTQVFPLERNAAVRTRLTHSMEVQQVGRYIAKEILSRLKEQDRLEEYGLDALTGPFESIVEMACLMHDIGNPPFGHFGEAAINDWFRQRLHPEDAESQPLTHDRCVVSSLRLQEGEENLNDIRRKVRQDICHFEGNAQGIRLVHTLMRMNLTWAQVGGILKYTRPAWWRGPVPDSHRYLMKKPGYYLSEEKYIARLRKELQLAPYSRFPLTWIMEAADDISYCVADLEDAVEKRIFSVEQLYHHLYHAWCHHEKDSLFELVVGNAWEKSRANTLSRSTEDQFFMYLRVNTLNKLVPYAAQRFIDNLPQIFAGTFNQALLEDASGFSRLLELYKNVAVEHVFSHPDVEQLELQGYRVISGLLDIYQPLLSLSLNDFRELVEKERLKRFPIESRLFQKLSTRHRLAYVEVVSKLPTDSAEYPVLEYYYRCRLIQDYISGMTDLYAWDEYRRLMAVEQ | not soluble
MGSDKIHHHHHHMASLPRLYYVTSGLDEANAFATWRAVISPLFEPRPCGPSRKTPTGSAYGIIIGDLVVAKVAFNAQDFVRDAQRIAVTPDHLLLHLYVSGGFNGEVTRQQTVIGPGKVALIDLACPLSTRAFASNTMCLIVPRKLLAGLPLHALKPKLDPLRNDLLAAYIRSLQERSAQLTEADVATTVAETADFLRRLLAPSAEADLAPERSADETILALTEALIRDNLALPELSPDWLAQQLDVSRASLYRLFAERGGVMRYVQERRLLAVQAALADPLETRRLSRLASDLGFKSEAHFSRSFRARFGITASAYRKAQLDASAAIQLTSPAVVQQWWTAVARDPLRHAG | not soluble
MGSDKIHHHHHHMATGTLPDAGQILNSLINSILLVDDDLAVHFANPAAQQLLAQSSRKLFGTPLPELLSYFSLNIGLMQESLQAGQGFTDNEVTLVIDGRSHILSLTAQRLPEGFILLEMAPMDNQRRLSQEQLQHAQQVAARDLVRGLAHEIKNPLGGLRGAAQLLSKALPDPALTEYTKVIIEQADRLRNLVDRLLGPQHPGMHVTESIHKVAERVVKLVSMELPDNVKLIRDYDPSLPELPHDPDQIEQVLLNIVRNALQALGPEGGEIILRTRTAFQLTLHGVRYRLAARIDVEDNGPGIPPHLQDTLFYPMVSGREGGTGLGLSIARSLIDQHSGKIEFTSWPGHTEFSVYLPIRK | not soluble
MGSDKIHHHHHHMATKHEQILQYITNLEVGEKISVRRIAKDLQVSEGTAYRAIKEAENQGLVSTIERVGTIRIEKKQKENIEKLTYAEVVNIVDGQVLGGRDGLHKTLNRFVIGAMKLDAMMRYVEPGNLLIVGNRYQVHQIALEAGAAVLITGGFDTSDEAIKLADELDLPVISTSYDTFTVATMINRAIYDQLIKKEITLVDDILIPLQDTYYMTTENVVGKWHELNEKTGHSRYPVIDENMKIQGMVAAKDVLNASRHTPIEKVMTKNPITVSERTSVAAVAHVMVWEGIELLPVIDSHRKLIGVVSRQDVLKALQMIQRQPHVGETIEDLMTNGLNESSSDQGDSYEVEITPQMTNQLGTISHGVMTSLVIESGSRVLRKYKKGDLVVENITLYFLKPVQIDSRLTIRPRVLEIGRKHGKIDVEMYHEGEIVGKALFMAQIID | not soluble
MGSDKIHHHHHHMAVLVTRPDERGQQLVDMLAKAGVVAIHLPLFRIESGAELNELPNKFAKLKNGDYVFAVSKSAVDFAFKTLTATGFVWRHDLHYFTVGQGTAQYFTATTEMPVHYPTAQENSEGLLQLNAMQDLSDKTVLILRGNGGRELFAEQAQQRGANVEIVECYRREPIVYNNAEQTSICKRAGIQTIVVTSAEILTQLVDFVPQNEHNWLKSCQLITVSERIAHLAEALGWQNVVISPRADNQTLLQTLLQCR | not soluble
MGSDKIHHHHHHMAWLLVGTKKYEDFEKNERVNRWYLNVRARSPISADIWRRSLLRYCTINNTTPEGLLDMAQKGTLKDNFQDFTIRMIAEGRRGAYLAKVKEILHSWIRFNDIDYKIRINIPNERLNETTMDERVPTKEELSKILRMGTVRSRVSVSLMAFSGLRPEVLGNYEGTDGLTLGDIEDLDIDTLTFKNVPAKINVRNGLSKTRLKYFTFLGQEGCGYLKDYLDHRKASGEILKKESALLAPDPGNVQTAHGFLRTALIAREIRKAIRNSNLSMRPYVLRVYFATALDIAESKGSISHPWRQYIMGHKGDIEATYSTNKRLLPETIEGMRSAYLKCTKFFETEEKGIKEEDYQKMLRDSAIDTLTGAFGITLTDDQKEELRNLDTAEYQKRLGEIFKDRKADLLNNGNSQKVIPFKDVEKYIEQGWEYVRDFPGNKAIVRLPS | not soluble
